This is an account of results in patent US20220168347A1 (published 2022).

In this experiment the target is T1, gp100 (gp100-intron4) peptide on HLA-A*24:02 (human).
T1 peptide: VYFFLPDHL
As to the kind of experiment: multimer staining.

B1: A*24:02/gp100-intron4 TCR (TCR, V domains shown)
Valpha: KQEVTQIPAALSVPEGENLVLNCSFTDSAIYNLQWFRQDPGKGLTSLLLIQSSQREQTSGRLNASLDKSSGRSTLYIAASQPGDSATYLCAVATDSWGKLQFGAGTQVVVTP
Vbeta: AAGVIQSPRHLIKEKRETATLKCYPIPRHDTVYWYQQGPGQDPQFLISFYEKMQSDKGSIPDRFSAQQFSDYHSELNMSSLELGDSALYFCASSLLPEGTGRVSGYTFGSGTRLTVV
For the molecule B1, the binding result is recorded as “recognises”.
